Experimental data taken from the nanobody polyreactivity screen of Harvey et al. (2022).

Assay: yeast display, Sf9 membrane polyspecificity reagent, FACS + sequencing; frameworks hold sequencing errors
Summary of the method: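 After 36–48 hours of galactose induction, yeast (Saccharomyces cerevisiae BJ5465) displaying a synthetic nanobody library were stained at 4 °C for 1 hour with 10% biotinylated, detergent-solubilized Sf9 membrane reagent. Streptavidin microbeads enriched the stained cells before FACS sorting into low and high (top ~1%) gates on anti-HA and streptavidin fluorescence. Each clone's polyreactivity label reflects its gate of origin.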

| Sequence | polyreactivity (PSR sort gate) |
| --- | --- |
| QVQLVESGGGLVQAGGSLRLSCAASGRILIPYAMGWYRQAPGKEREFVAGITGSGGRTYYADSVKGRFTISRDNAKNTVYLQMNSLKPEDTAVYYCAADYYYSPTMYYWGQGTQVTVSS | low polyreactivity |
| QVQLVESGGGLVQAGGSLRLSCAASGRILIRKAMGRSRQAPGKERELVAAINRGGGSTYYADSVKGRFTISRDNAKNTVYLQMNSLKPEDTAVYYCAADRKAGYSRVDGDYWGQGTQVTVSS | low polyreactivity |
| QVQLVESGGGLVQAGGSLRLSCAASGRILKRYAMGWYRQAPGKERELVAAINWSGGSTYYADSVKGRFTISRDNAKNTVYLQMTSLKPEDTAVYYCAADSWPFGYYYWGQGTQVTVSS | high polyreactivity |
| QVQLVESGGGLVQAGGSLRLSCAASGRILKVYAMGGYRQAPGQERELVAAISVNGGRTYYADSVKGRFTISRDNAKNTVYLQMNSLKPEDTAVYYCAIRLYKPGNVFYSVDQSDYWGQGTQVTVSS | low polyreactivity |
| QVQLVESGGGLVQAGGSLRLSCAASGRILLRNVMGLYRPAPGKERELVAVITRTGITYYADSVKGRFTISRDNAKNTVYLQMISLNPEDTAVYYCAAGLPTYEHDYWGQGTQVTVSS | low polyreactivity |
| QVQLVESGGGLVQAGGSLRLSCAASGRILLSYAMGWYRQAPGKERELVAAISRSGVSTYYADSVKGRFTISRDNAKNTVYLQMNSLKPEDTAVYYCAAVRSSPGKSWDYNYWGQGTQVTVSS | high polyreactivity |
| QVQLVESGGGLVQAGGSLRLSCAASGRILPFNAMGWYRQAPGKERELVAAIRWRGSSTYYADSVKGRFTISRDIAKNTVYLQMNSLKPEDTAVYYCAAPSSVRGKVISADYGYWGQGTQVTVSS | high polyreactivity |
| QVQLVESGGGLVQAGGSLRLSCAASGRILPFNAMGWYRQAPGKERELVATITRRGGSTFYADSVKGRFTMSRDNAKNTVYLQMNSLKPEDTAVYYCAKTYWYVGSSRTYNYWGQGTQVTVSS | high polyreactivity |
| QVQLVESGGGLVQAGGSLRLSCAASGRILPSNAMGWYRPAPGKERELVAGITSGGSTDYADSVKGRFTISRDNAKNTVYLQMNSLKPEDTAVYYCNKPFPYYPDGPNGYDYWGQGTQVTVSS | low polyreactivity |
| QVQLVESGGGLVQAGGSLRLSCAASGRILQFYAMGWYRQAPGKERELVATIRVGGGSTYYADSVKGRFTISRDNAKNTVYLQMYSLKPEDTAVYYCAVRQLYSYPGDRRGYYWGQGTQVTVSS | low polyreactivity |
| QVQLVESGGGLVQAGGSLRLSCAASGRILQGYAMGWYRQAPGKERELVASIRTGGTTNYADSVKGRFTISRDNAKNTVYLQMNSLKPEDTAVYYCNLGYYSYYGRYYYWGQGTQVTVSS | high polyreactivity |
| QVQLVESGGGLVQAGGSLRLSCAASGRILQPNAMGWYRQAPGKERELVAGISRSGGGTYYADSVKWRFTISRDNAKNTVYLQMNTLKPEDTAVYYCAAYRYGYGYGYWGQGTQLTVSS | high polyreactivity |
| QVQLVESGGGLVQAGGSLRLSCAASGRILRSYAMGWYRPAPGKERELVAAIRWRGGSTYYADSVKGRFTISRDNAKNTVYLQMNSLKPEDTAVYYCAARSYYRQSAGDYWGQGTQVTVSS | high polyreactivity |
| QVQLVESGGGLVQAGGSLRLSCAASGRILRTYAMGWYRPAPGKERELVAAISRSGGSTYYADSVKGRFTISRDNAKNTVYLQMNSLKPEDTAVYYCNKAYGGRGYKYEYWGQGTQVTVSS | high polyreactivity |
| QVQLVESGGGLVQAGGSLRLSCAASGRILSGNAMGWYRQAPGKERELVAAITNAGITKYADSVKGRFTISRDNAKNTVYLQMNSLKPEDTAVYYCATDRYAYKLYDYWGQGTQVTVSS | low polyreactivity |
| QVQLVESGGGLVQAGGSLRLSCAASGRILSKNAMGWYRQAPGKERELVAAIRGSTGITYYADSVKGRFTISRDNAKNTVYLQMNSLKPEDTAVYYCAAVVQGGFYWGQGTQVTVSS | high polyreactivity |
| QVQLVESGGGLVQAGGSLRLSCAASGRILSYYAMGWYRQAPGKERELVAVIRRGASTYADSVKGRFTISRDNAKNTVYLQMNSLKPEDTAVYYCNADRVVGLSATKYGYWGQGTQVTVSS | low polyreactivity |
| QVQLVESGGGLVQAGGSLRLSCAASGRILTFNAMGGYRQAPVKERELVASISNGGSTIYADSVKGRFSISRDNAKNTVYLQMNSLKPEDTAVYYCAALNASQGTVTFYIFDYWGQGTQVTVSS | low polyreactivity |
| QVQLVESGGGLVQAGGSLRLSCAASGRILTGYAMGWYRQAPGKARELVAAISNDTDSTHYADSVKGRFTISRDNAKNTVYLQMNSLKPEDTAVYYCATDAPLQKRWRRFDYWGQGTQVTVSS | low polyreactivity |
| QVQLVESGGGLVQAGGSLRLSCAASGRILTGYAMGWYRQAPGKERELVAAISNDTDSTHYADSVKGRFTISRDNAKNTVYLQMNSLKPEDTAVYYCATDAPLQKRWRRFDYWGQGTQVTVSS | low polyreactivity |
| QVQLVESGGGLVQAGGSLRLSCAASGRILTRNALGWYRQAPGKERELVAAISTSGGRTYYADSVKGRFTISRDNAKNTVYLEMNSLKPEDTAVYYCAAYSASYGGYDYWGQGTQVTVSS | high polyreactivity |
| QVQLVESGGGLVQAGGSLRLSCAASGRILVDYAMGWYRQAPGKERELVAAITSTGGTTYYADSVKGRFTISRDNAKNTVYLQMNSLKPEDTAVYYCAAKRQDSWGGTYGYWGQGTQVTVSS | low polyreactivity |

| Sequence | polyreactivity (PSR sort gate) |
| --- | --- |
| QVQLVESGGGLVQAGGSLRLSCAASGRILVYYAMGWYRQATGKERELVAAITASGASTYYADSVKGRFTISRDNAKKTVYLQMNSLKPEDTAVYYCKVLYPRKYWQVREYYWGQGTQVTVSS | high polyreactivity |
| QVQLVESGGGLVQAGGSLRLSCAASGRILWFYAMGWYRQAPGKERELVAAITDSGGSTYYADSVKGRFTISRDNAKNTVYLQMNSLKPEDTAVYYCAADTYYEFQYYVILEYNYWGQGTQVTVSS | low polyreactivity |
| QVQLVESGGGLVQAGGSLRLSCAASGRILYLNDMGWYRQAPGKERELGAAITRRAGSTSYADSVKGRFTISRDNAKNTFYLQMNSLKPEDTAVYYCAKATSRRGFYYWGQGTQVTVSS | high polyreactivity |
| QVQLVESGGGLVQAGGSLRLSCAASGRILYNYAMGWYRQAPGKECELVAAISSGGSTNYADSVKGRFTISRDNAKNTVYFQMNSLKPEDTAVYYCAAYRGHSWRGLYRWSDYDFWGQGTQVTVSS | low polyreactivity |
| QVQLVESGGGLVQAGGSLRLSCAASGRILYPYAMGGYRQAPGKERELVAAITFIGGSTYYADSVKGRFTISRDNAKNTVYLQMNSLKPEDTAVYYCNAKPHRPSLLRWRIGNYWGQGTQVTVSS | high polyreactivity |
| QVQLVESGGGLVQAGGSLRLSCAASGRILYRYAMGWYRQAPGKERELVAAISRSGGDTYYADSVKGRFTISRDNAKNTVYLQMNSLKPEDTAVYYCAASFEGSGYRYDYWGQGTQVTVSS | low polyreactivity |
| QVQLVESGGGLVQAGGSLRLSCAASGRILYRYAMGWYRQAPGKERELVAAITWRGGTTYYADSVKGRFTISRDNAKNTVYLQMISLKPEDTAVYYCNSDWWRTLESDYWGQGTQVTVSS | low polyreactivity |
| QVQLVESGGGLVQAGGSLRLSCAASGRILYRYDMGWYRQAPGKERELVAAISRRGGSTTYADSVKGRFTISRDNAKNTVYLQMNSLKPEDTAVYYCATDYKYAAPTVIESDYWGQGTEVTVSS | high polyreactivity |
| QVQLVESGGGLVQAGGSLRLSCAASGRILYSYAMGWYRQEPGKERELVAAISSTGSTYYADSVKGRFTISRDNAKNTVYLQMISLKPEDTAVYYCAATFYPYQVHHYYYWGQGTQVTVSS | low polyreactivity |
| QVQLVESGGGLVQAGGSLRLSCAASGRILYSYTMGWYRQAPGKEREFVAAITRSGGGTYYADSVKGRFTISRDNAKNTVYLQMNSLKPEDTAVYYCAYYTYYLAYGYWGQGTQVTVSS | high polyreactivity |
| QVQLVESGGGLVQAGGSLRLSCAASGRILYVYVMGWYRQAPGKERELVAAITTSGDSTYYADSVKGRFTISRDNAKNTVYLQMNRLKPEDTAVYYCNAEEHDYVAHMDYWGQGTQVTVSS | low polyreactivity |
| QVQLVESGGGLVQAGGSLRLSCAASGRILYYSVMGWYRPAPGKERELVAAISSGGDTNYADSVKGRFTISRDNAKNSVYLQMNSLKPEDTAVYYCARGVDGILWTSEYDYWGQGTQVTVSS | low polyreactivity |
| QVQLVESGGGLVQAGGSLRLSCAASGRILYYYAMGWYRQAPGKERELVATITRTTGSTYYADSVKGRFTISRDNAKNTVYLQMNSLKPEDTAVYYCAARWGRWIRDNYWGQGTQVSVSS | high polyreactivity |
| QVQLVESGGGLVQAGGSLRLSCAASGRINLYNAMGWYRQAPRKEMELVAVISYRGGSTYYADSVKGRFTISRENAKNTVYLQMNSLKPDDTAVYYCNKDKSYSGTRYDYWGQGTQVTVSS | high polyreactivity |
| QVQLVESGGGLVQAGGSLRLSCAASGRIQSVYAMGWYRQAPGKERELVAAIDYSGGSTNYADSVKGRFTISRDNGKNTVYLQMNSLKPEDTAVYYCNREGGAIAWRYLLEYLYSWGQGTQVTVSS | low polyreactivity |
| QVQLVESGGGLVQAGGSLRLSCAASGRIQYNAMGWYSQAPGKEREFGAAISWSGGTTYYADSVKGRFTISRDTAKNTVYLQMNSLKPEDTAVYYCATPYTHWGQGTQVTVSS | high polyreactivity |
| QVQLVESGGGLVQAGGSLRLSCAASGRISGVNAMGWSRQAPGKERELVATISGSGGRTYYADSVKGRFTISRDNAKNTVYLQMNSLNPEDTGGYYCNSMVERGGYFSRRFDFWGQGSQVTVSS | low polyreactivity |
| QVQLVESGGGLVQAGGSLRLSCAASGRISGYNAMGWYRPAPGKQRELVAVITGSGGTYYADSVKGRFTISRDNAKNTVYLQMNSLKPEDSAVYYCAAGLAIRTYYPRYDYWGQGTQVTVSS | low polyreactivity |
| QVQLVESGGGLVQAGGSLRLSCAASGRISIIYAMGWYRQAPGKERELVARISGSGGSTNYADSVKGRFTISRDNAKNTVYLQMKSLKPEDTAVYYCAAVPWRIHKYYYWGQCTQVTVSS | high polyreactivity |
| QVQLVESGGGLVQAGGSLRLSCAASGRISKIYAMGWYRQAPGKERELVAAINSGGSTNYADSVKGRFTISRDNAKNTVYLQLNSLKPEDTAVYYCAATFKSGMDYWGQGTQVTVSS | high polyreactivity |
| QVQLVESGGGLVQAGGSLRLSCAASGRISLGYAMGWYRQAPGKERELVAAITRGGTTSYAHSVKGRFTISRDNAKNTVYLQMNSLKPEDTAVYYCAVPAGYFGKWTYYYWGQGTQVTVSS | high polyreactivity |
